The text below walks through data of publication PMC3616719.

Assay in all cases: co-sedimentation
Experiment [1] has as its target P0mutI (P0 with F215Q/V222Q in helix I) (Bombyx mori).
Experiment [2] concerns the target P0mutII (P0 with I241Q/L248Q in helix II) (Bombyx mori).
Experiment [3] concerns the target Bombyx mori ribosomal protein P0 (full-length) (Bombyx mori).

Regarding P1–[32P]P2 heterodimer (complex), the stoichiometry N (copies of P2 per 50S particle) in experiment [1] came out at 1.04; in experiment [2], 1.14; in experiment [3], 2.22.
